# Experimental data from patent publication US20230052369A1 (Zymeworks, published 2023).
# Assays:
# [1] = biological target: T1, purified human monomeric 4-1BB (human, UniProt Q07011 24-186); assay: SPR, mean n=3;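 also: antibodies captured on anti-human Fc chip, 4-1BB injected as five-point two-fold series from 40 nM by single-cycle kinetics at 25 °C, sensorgrams fitted to 1:1 Langmuir model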
# T1 construct: the assay used the 4-1BB part released by Factor Xa with the Fc removed; also called h4-1BB; human 4-1BB
# T1 sequence (Q07011 other isoform, or with tags, fused parts or gaps limits assumed): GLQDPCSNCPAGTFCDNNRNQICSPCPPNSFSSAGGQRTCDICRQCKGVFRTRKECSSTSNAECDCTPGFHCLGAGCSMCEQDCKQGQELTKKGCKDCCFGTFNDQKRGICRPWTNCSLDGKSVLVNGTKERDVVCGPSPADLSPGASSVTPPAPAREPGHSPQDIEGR
# Procedure: The anti-human Fc surface was prepared on a CMS Series S sensorchip by standard amine coupling methods as described by the manufacturer (GE Healthcare). Briefly, immediately after EDC/NHS activation, a 25 μg/mL solution of anti-human Fc in 10 mM NaOAc pH 4.5 was injected at a flow rate of 10 μL/min for 420 s until approximately 2000 resonance units (RUs) were immobilized on all four flow cells. The remaining active groups were quenched by a 420 s injection of 1M ethanolamine at 10 μL/min.
# Antibodies for analysis were captured onto the anti-Fc surface by injecting 5 μg/mL solutions at a flow rate of 10 μL/min for 60 s. Using single-cycle kinetics, five concentrations of a two-fold dilution series of 4-1BB starting at 40 nM (for both supernatant and purified antibody runs) with a blank buffer control were sequentially injected at 40 μL/min for 180 s with a 600 s dissociation phase, resulting in a set of sensorgrams with a buffer blank reference. Experiments were performed at a constant temperature of 25° C. The anti-human Fc surfaces were regenerated to prepare for the next injection cycle by one pulse of 10 mM Glycine/HCl pH 1.5 for 120 s at 40 μL/min. Blank-subtracted sensorgrams were analyzed using Biacore™ T200 Evaluation Software v3.0. The blank-subtracted sensorgrams were then fit to the 1:1 Langmuir binding model.
# Protein material post protein-A or SEC was assessed for binding to human 4-1BB.
# [2] = biological target: T2, human 4-1BB, full-length, expressed on cells (human, UniProt Q07011 24-255); assay: flow cytometry, Jurkat-4-1BB
# T2 construct: also called CD137; TNFRSF9
# T2 sequence (Q07011 24-255): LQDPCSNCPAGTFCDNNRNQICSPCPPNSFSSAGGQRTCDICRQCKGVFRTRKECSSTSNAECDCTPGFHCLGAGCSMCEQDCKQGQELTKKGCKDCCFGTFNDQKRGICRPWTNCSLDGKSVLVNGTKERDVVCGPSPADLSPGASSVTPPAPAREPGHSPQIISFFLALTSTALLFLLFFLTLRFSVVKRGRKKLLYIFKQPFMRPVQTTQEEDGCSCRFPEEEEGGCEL
# Procedure: Jurkat T cells engineered to stably express human 4-1BB were used to measure binding of antibodies to human 4-1BB. Antibodies were diluted in 5 μl FB (PBS 2% FCS) 1:3 from stock in wells of a 96 V-well plate, and cells added on top. The cells were then left on ice for 30 minutes for the antibodies to bind. The cells were then washed twice in FB, and then incubated in 50 μl FB containing 2 μg/ml goat anti-human Alexa647 antibody (Jackson Immunoresearch). The cells were then left on ice for a further 20 minutes, washed twice in FB, resuspended in 100 μl FB and analysed on a BD Fortessa™ X20. The subsequent data files were analysed using FlowJo™ and Prism 7 (GraphPad) using a four-parameter non-linear regression.
Binder,Kd [1],EC50 [2]
"v28726 (antibody, human IgG1, kappa, L234A L235A, V domains shown, also called humanized 1C8 H7L3) VH: EVQLVESGGGLIQPGGSLRLSCAVSGFSLTTYAISWVRQAPGKGLEWLGIIWPGGGTNYADSVKGRFTISKDNSKNTLYLQMNSLRAEDTAVYYCARGAGTWYFDVWGQGTLVTVSS VL: DIQMTQSPSSLSASVGDRVTITCSASQGISNYLNWYQQKPGKTVKLLIYYTSSLHSGVPSRFSGSGSGTDYTLTISSLQPEDIATYYCQQYSKFPWTFGQGTKLEIKR",763 nM,–
"v28728 (antibody, human IgG1, kappa, L234A L235A, V domains shown, also called humanized 1C8 H8L2) VH: EVQLVESGGGLIQPGGSLRISCAVSGFSLTTYAISWVRQAPGKGLEWLGIIWPGGGTNYADSLKGRLTISKDNSKNTVYLQMNSLRTEDTAVYYCARGAGTWYFDVWGQGTLVTVSS VL: DIQMTQSPSSLSASVGDRVTITCSASQGISNYLNWYQQKPGKAPKLLIYYTSSLHSGVPSRFSGSGSGTDYTLTISSLQPEDIATYYCQQYSKFPWTFGQGTKLEIKR",1420 nM,713 nM
"v28727 (antibody, human IgG1, kappa, L234A L235A, V domains shown, also called humanized 1C8 H8L1) VH: EVQLVESGGGLIQPGGSLRISCAVSGFSLTTYAISWVRQAPGKGLEWLGIIWPGGGTNYADSLKGRLTISKDNSKNTVYLQMNSLRTEDTAVYYCARGAGTWYFDVWGQGTLVTVSS VL: DIQMTQSPSSLSASVGDRVTITCSASQGISNYLNWYQQKPGKAPKLLIYYTSSLHSGVPSRFSGSGSGTDFTFTISSLQPEDIATYYCQQYSKFPWTFGQGTKVEIKR",813 nM,24.2 nM
"v28730 (antibody, human IgG1, kappa, L234A L235A, V domains shown, also called humanized 1C8 H8L3) VH: EVQLVESGGGLIQPGGSLRISCAVSGFSLTTYAISWVRQAPGKGLEWLGIIWPGGGTNYADSLKGRLTISKDNSKNTVYLQMNSLRTEDTAVYYCARGAGTWYFDVWGQGTLVTVSS VL: DIQMTQSPSSLSASVGDRVTITCSASQGISNYLNWYQQKPGKTVKLLIYYTSSLHSGVPSRFSGSGSGTDYTLTISSLQPEDIATYYCQQYSKFPWTFGQGTKLEIKR",762 nM,88.7 nM
"v28705 (antibody, human IgG1, kappa, L234A L235A, V domains shown, also called humanized 5G8 H3L3) VH: QVQLQESGPGLVKPSETLSITCTVSGFSLISYGVHWVRQPPGKGLEWLGVIWSGGSTDYNPSLKSRVTISKDTSKNQVSFKLSSLTAADTAIYYCARNPLTATVMDYWGQGTLVTVSS VL: DIQMTQSPSSLSASVGDRVTVTCRASQNVGTNVAWYQQKPGKAPKALIYSASYRDSGVPSRFSGSGSGTDFTLTISSVQPEDFATYYCQQYNSYPLTFGGGTKLEIKR",195 nM,3.32 nM
"v28700 (antibody, human IgG1, kappa, L234A L235A, V domains shown, also called humanized 5G8 H2L2) VH: QVQLQESGPGLVKPSETLSLTCTVSGFSLISYGVHWVRQPPGKGLEWLGVIWSGGSTDYNPSLKSRVTISKDTSKNQFSLKLSSVTAADTAVYYCARNPLTATVMDYWGQGTLVTVSS VL: DIQMTQSPSSLSASVGDRVTITCRASQNVGTNVAWYQQKPGKAPKALIYSASYRDSGVPSRFSGSGSGTDFTLTISSLQPEDFATYYCQQYNSYPLTFGGGTKVEIKR",222 nM,56.4 nM
"v28698 (antibody, human IgG1, kappa, L234A L235A, V domains shown, also called humanized 5G8 H1L4) VH: QVQLQESGPGLVKPSETLSLTCTVSGFSLISYGVHWIRQPPGKGLEWIGVIWSGGSTDYNPSLKSRVTISVDTSKNQFSLKLSSVTAADTAVYYCARNPLTATVMDYWGQGTLVTVSS VL: DIQMTQSPSSLSASVGDRVTVTCRASQNVGTNVAWYQQKPGKAPKALIYSASYRDSGVPSRFSGSGSGTDFTLTISSVQPEDLATYYCQQYNSYPLTFGGGTKLEIKR",1110 nM,38.3 nM
"v28696 (antibody, human IgG1, kappa, L234A L235A, V domains shown, also called humanized 5G8 H1L2) VH: QVQLQESGPGLVKPSETLSLTCTVSGFSLISYGVHWIRQPPGKGLEWIGVIWSGGSTDYNPSLKSRVTISVDTSKNQFSLKLSSVTAADTAVYYCARNPLTATVMDYWGQGTLVTVSS VL: DIQMTQSPSSLSASVGDRVTITCRASQNVGTNVAWYQQKPGKAPKALIYSASYRDSGVPSRFSGSGSGTDFTLTISSLQPEDFATYYCQQYNSYPLTFGGGTKVEIKR",574 nM,–
"v28697 (antibody, human IgG1, kappa, L234A L235A, V domains shown, also called humanized 5G8 H1L3) VH: QVQLQESGPGLVKPSETLSLTCTVSGFSLISYGVHWIRQPPGKGLEWIGVIWSGGSTDYNPSLKSRVTISVDTSKNQFSLKLSSVTAADTAVYYCARNPLTATVMDYWGQGTLVTVSS VL: DIQMTQSPSSLSASVGDRVTVTCRASQNVGTNVAWYQQKPGKAPKALIYSASYRDSGVPSRFSGSGSGTDFTLTISSVQPEDFATYYCQQYNSYPLTFGGGTKLEIKR",735 nM,–
"v28688 (antibody, human IgG1, kappa, L234A L235A, V domains shown, also called humanized 1G1 H2L2) VH: EVQLVESGGGLVQPGGSLRLSCAASGFTFSEFGMHWVRQAPGKGLEWVAYISSGGSTIYYADSVKGRFTISRDNAKNSLYLQMNSLRAEDTAVYYCARDWVDYWGQGTLLTVSS VL: EIVLTQSPATLSLSPGERATLSCKASENVGSYVSWYQQKPGQAPRLLIYGASNRYTGVPARFSGSGSGTDFTLTISSLEPEDFAVYYCGQSYSYPLTFGGGTKVEIKR",69.2 nM,0.36 nM
"v28685 (antibody, human IgG1, kappa, L234A L235A, V domains shown, also called humanized 1G1 H1L3) VH: EVQLVESGGGLVQPGGSLRLSCAASGFTFSEFGMHWVRQAPGKGLEWVSYISSGGSTIYYADSVKGRFTISRDNAKNSLYLQMNSLRAEDTAVYYCARDWVDYWGQGTLVTVSS VL: EIVMTQSPATLSLSPGERVTLSCKASENVGSYVSWYQQKPGQAPRLLIYGASNRYTGVPARFSGSGSGTDFTLTISSVEPEDFAVYYCGQSYSYPLTFGGGTKLELKR",31.2 nM,0.0551 nM
"v28689 (antibody, human IgG1, kappa, L234A L235A, V domains shown, also called humanized 1G1 H2L3) VH: EVQLVESGGGLVQPGGSLRLSCAASGFTFSEFGMHWVRQAPGKGLEWVAYISSGGSTIYYADSVKGRFTISRDNAKNSLYLQMNSLRAEDTAVYYCARDWVDYWGQGTLLTVSS VL: EIVMTQSPATLSLSPGERVTLSCKASENVGSYVSWYQQKPGQAPRLLIYGASNRYTGVPARFSGSGSGTDFTLTISSVEPEDFAVYYCGQSYSYPLTFGGGTKLELKR",58.3 nM,0.486 nM
"v28692 (antibody, human IgG1, kappa, L234A L235A, V domains shown, also called humanized 1G1 H3L2) VH: EVQLVESGGGLVQPGGSLRLSCAASGFTFSEFGMHWVRQAPGKGLEWVAYISSGGSTIYYADSVKGRFTISRDNAKNSLYLQMNSLRAEDTAMYYCARDWVDYWGQGTLLTVSS VL: EIVLTQSPATLSLSPGERATLSCKASENVGSYVSWYQQKPGQAPRLLIYGASNRYTGVPARFSGSGSGTDFTLTISSLEPEDFAVYYCGQSYSYPLTFGGGTKVEIKR",46.4 nM,0.771 nM
"v28690 (antibody, human IgG1, kappa, L234A L235A, V domains shown, also called humanized 1G1 H2L4) VH: EVQLVESGGGLVQPGGSLRLSCAASGFTFSEFGMHWVRQAPGKGLEWVAYISSGGSTIYYADSVKGRFTISRDNAKNSLYLQMNSLRAEDTAVYYCARDWVDYWGQGTLLTVSS VL: EIVMTQSPATLSLSPGERVTLSCKASENVGSYVSWYQQKPGQAPRLLIYGASNRYTGVPARFSGSGSGTDFTLTISSVEPEDLAVYYCGQSYSYPLTFGGGTKLELKR",34.4 nM,0.376 nM
"v28691 (antibody, human IgG1, kappa, L234A L235A, V domains shown, also called humanized 1G1 H3L1) VH: EVQLVESGGGLVQPGGSLRLSCAASGFTFSEFGMHWVRQAPGKGLEWVAYISSGGSTIYYADSVKGRFTISRDNAKNSLYLQMNSLRAEDTAMYYCARDWVDYWGQGTLLTVSS VL: EIVLTQSPATLSLSPGERATLSCKASENVGSYVSWYQQKPGQAPRLLIYGASNRYTGIPARFSGSGSGTDFTLTISSLEPEDFAVYYCGQSYSYPLTFGGGTKVEIKR",54.2 nM,1.44 nM
"v28686 (antibody, human IgG1, kappa, L234A L235A, V domains shown, also called humanized 1G1 H1L4) VH: EVQLVESGGGLVQPGGSLRLSCAASGFTFSEFGMHWVRQAPGKGLEWVSYISSGGSTIYYADSVKGRFTISRDNAKNSLYLQMNSLRAEDTAVYYCARDWVDYWGQGTLVTVSS VL: EIVMTQSPATLSLSPGERVTLSCKASENVGSYVSWYQQKPGQAPRLLIYGASNRYTGVPARFSGSGSGTDFTLTISSVEPEDLAVYYCGQSYSYPLTFGGGTKLELKR",31.1 nM,–
"v28683 (antibody, human IgG1, kappa, L234A L235A, V domains shown, also called humanized 1G1 H1L1) VH: EVQLVESGGGLVQPGGSLRLSCAASGFTFSEFGMHWVRQAPGKGLEWVSYISSGGSTIYYADSVKGRFTISRDNAKNSLYLQMNSLRAEDTAVYYCARDWVDYWGQGTLVTVSS VL: EIVLTQSPATLSLSPGERATLSCKASENVGSYVSWYQQKPGQAPRLLIYGASNRYTGIPARFSGSGSGTDFTLTISSLEPEDFAVYYCGQSYSYPLTFGGGTKVEIKR",42.3 nM,0.223 nM
"v28684 (antibody, human IgG1, kappa, L234A L235A, V domains shown, also called humanized 1G1 H1L2) VH: EVQLVESGGGLVQPGGSLRLSCAASGFTFSEFGMHWVRQAPGKGLEWVSYISSGGSTIYYADSVKGRFTISRDNAKNSLYLQMNSLRAEDTAVYYCARDWVDYWGQGTLVTVSS VL: EIVLTQSPATLSLSPGERATLSCKASENVGSYVSWYQQKPGQAPRLLIYGASNRYTGVPARFSGSGSGTDFTLTISSLEPEDFAVYYCGQSYSYPLTFGGGTKVEIKR",38.5 nM,0.247 nM
"v28693 (antibody, human IgG1, kappa, L234A L235A, V domains shown, also called humanized 1G1 H3L3) VH: EVQLVESGGGLVQPGGSLRLSCAASGFTFSEFGMHWVRQAPGKGLEWVAYISSGGSTIYYADSVKGRFTISRDNAKNSLYLQMNSLRAEDTAMYYCARDWVDYWGQGTLLTVSS VL: EIVMTQSPATLSLSPGERVTLSCKASENVGSYVSWYQQKPGQAPRLLIYGASNRYTGVPARFSGSGSGTDFTLTISSVEPEDFAVYYCGQSYSYPLTFGGGTKLELKR",36.2 nM,0.353 nM
"v28694 (antibody, human IgG1, kappa, L234A L235A, V domains shown, also called humanized 1G1 H3L4) VH: EVQLVESGGGLVQPGGSLRLSCAASGFTFSEFGMHWVRQAPGKGLEWVAYISSGGSTIYYADSVKGRFTISRDNAKNSLYLQMNSLRAEDTAMYYCARDWVDYWGQGTLLTVSS VL: EIVMTQSPATLSLSPGERVTLSCKASENVGSYVSWYQQKPGQAPRLLIYGASNRYTGVPARFSGSGSGTDFTLTISSVEPEDLAVYYCGQSYSYPLTFGGGTKLELKR",34.7 nM,0.455 nM
"v28687 (antibody, human IgG1, kappa, L234A L235A, V domains shown, also called humanized 1G1 H2L1) VH: EVQLVESGGGLVQPGGSLRLSCAASGFTFSEFGMHWVRQAPGKGLEWVAYISSGGSTIYYADSVKGRFTISRDNAKNSLYLQMNSLRAEDTAVYYCARDWVDYWGQGTLLTVSS VL: EIVLTQSPATLSLSPGERATLSCKASENVGSYVSWYQQKPGQAPRLLIYGASNRYTGIPARFSGSGSGTDFTLTISSLEPEDFAVYYCGQSYSYPLTFGGGTKVEIKR",40.3 nM,1 nM
